From patent US20250215072A1 (published 2025) come the findings set out here.

For experiment [1], the target named is hLTBP1-proTGFβ1 as produced in the cell-based activation assay (human, UniProt P01137 30-390; Q14766 347-1721). Nature of the experiment: cell-based or functional assay.
For experiment [2], the target named is hLTBP3-proTGFβ1 as produced in the cell-based activation assay (human, UniProt P01137 30-390; Q9NS15 44-1303). As to the kind of experiment: cell-based or functional assay.
The target in experiment [3] is hGARP-proTGFβ1 presented on cells (human, UniProt P01137 30-390; Q14392 20-662). As to the kind of experiment: cell-based or functional assay.
Experiment [4] concerns the target hLRRC33-proTGFβ1 presented on cells (human, UniProt P01137 30-390; Q86YC3 19-692). As to the kind of experiment: cell-based or functional assay.
Experiment [5] concerns the target T1, human GARP-proTGFβ1 complex (human, UniProt P01137 30-390; Q14392 20-627).
T1 construct: also called hGARP-proTGFβ1; hGARP
As to the kind of experiment: BLI (Octet). The method, then:
(§1) The affinity of anti-TGFβ1 antibodies was measured by Octet@ assay on human proTGFβ1 cells, while activity was measured by CAGA12 reporter cells testing human proTGFβ1 inhibition.

In experiment [6] the target is T2, human LRRC33-proTGFβ1 complex (human, UniProt P01137 30-390; Q86YC3 19-650).
T2 construct: also called hLRRC33-proTGFβ1; hLRRC33
As to the kind of experiment: BLI (Octet). The method, then:
as §1

T2 sequence (P01137 30-390 limits assumed, chain 1 of 2): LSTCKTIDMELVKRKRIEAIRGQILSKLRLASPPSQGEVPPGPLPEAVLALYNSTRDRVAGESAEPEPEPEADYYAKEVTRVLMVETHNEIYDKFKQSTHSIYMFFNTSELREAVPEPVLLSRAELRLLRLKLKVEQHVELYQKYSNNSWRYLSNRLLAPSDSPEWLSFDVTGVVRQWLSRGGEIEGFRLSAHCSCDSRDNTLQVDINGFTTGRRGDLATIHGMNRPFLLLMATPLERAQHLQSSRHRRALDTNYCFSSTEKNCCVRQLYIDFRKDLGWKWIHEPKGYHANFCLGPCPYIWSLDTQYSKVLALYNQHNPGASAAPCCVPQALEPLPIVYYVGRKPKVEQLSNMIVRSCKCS
T2 sequence (Q86YC3 other isoform, or with tags, fused parts or gaps limits assumed, chain 2 of 2): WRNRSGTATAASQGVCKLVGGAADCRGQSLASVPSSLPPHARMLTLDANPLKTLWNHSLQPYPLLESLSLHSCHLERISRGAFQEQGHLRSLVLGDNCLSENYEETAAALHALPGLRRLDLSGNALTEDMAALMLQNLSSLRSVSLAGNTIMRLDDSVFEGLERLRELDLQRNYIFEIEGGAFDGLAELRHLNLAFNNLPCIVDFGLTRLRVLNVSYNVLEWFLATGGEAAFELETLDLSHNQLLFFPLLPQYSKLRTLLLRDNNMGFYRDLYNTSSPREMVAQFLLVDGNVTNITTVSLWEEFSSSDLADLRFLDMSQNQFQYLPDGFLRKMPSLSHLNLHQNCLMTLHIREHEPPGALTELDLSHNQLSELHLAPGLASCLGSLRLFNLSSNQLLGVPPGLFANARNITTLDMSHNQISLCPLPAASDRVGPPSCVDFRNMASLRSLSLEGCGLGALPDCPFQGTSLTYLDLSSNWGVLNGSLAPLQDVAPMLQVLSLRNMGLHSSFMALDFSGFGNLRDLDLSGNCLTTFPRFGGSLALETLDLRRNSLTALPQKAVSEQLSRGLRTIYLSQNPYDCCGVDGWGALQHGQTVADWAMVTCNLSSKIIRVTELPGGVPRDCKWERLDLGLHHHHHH
T1 sequence (P01137 30-390, chain 1 of 2): as the sequence (P01137 30-390 limits assumed, chain 1 of 2) above
T1 sequence (Q14392 20-627, chain 2 of 2): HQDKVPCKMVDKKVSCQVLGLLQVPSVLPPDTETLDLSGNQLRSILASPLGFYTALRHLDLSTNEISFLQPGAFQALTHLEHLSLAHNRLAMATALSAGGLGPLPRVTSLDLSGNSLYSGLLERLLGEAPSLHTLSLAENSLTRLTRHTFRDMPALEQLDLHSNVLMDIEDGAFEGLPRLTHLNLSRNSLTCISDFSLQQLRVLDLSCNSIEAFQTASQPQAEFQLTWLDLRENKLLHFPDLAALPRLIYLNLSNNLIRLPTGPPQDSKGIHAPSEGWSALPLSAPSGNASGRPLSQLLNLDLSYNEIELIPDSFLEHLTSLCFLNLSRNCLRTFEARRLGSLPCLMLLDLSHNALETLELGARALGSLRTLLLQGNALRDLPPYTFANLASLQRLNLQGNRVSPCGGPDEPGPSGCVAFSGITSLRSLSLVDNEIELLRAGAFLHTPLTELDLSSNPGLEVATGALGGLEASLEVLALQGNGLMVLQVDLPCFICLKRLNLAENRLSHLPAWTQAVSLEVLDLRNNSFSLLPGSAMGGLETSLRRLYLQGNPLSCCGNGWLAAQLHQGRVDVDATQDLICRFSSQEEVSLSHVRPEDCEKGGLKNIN
Sequence of hLTBP1-proTGFβ1 as produced in the cell-based activation assay (P01137 30-390 limits assumed, chain 1 of 2): as the sequence (P01137 30-390 limits assumed, chain 1 of 2) above
Sequence of hLTBP1-proTGFβ1 as produced in the cell-based activation assay (Q14766 347-1721 limits assumed, chain 2 of 2): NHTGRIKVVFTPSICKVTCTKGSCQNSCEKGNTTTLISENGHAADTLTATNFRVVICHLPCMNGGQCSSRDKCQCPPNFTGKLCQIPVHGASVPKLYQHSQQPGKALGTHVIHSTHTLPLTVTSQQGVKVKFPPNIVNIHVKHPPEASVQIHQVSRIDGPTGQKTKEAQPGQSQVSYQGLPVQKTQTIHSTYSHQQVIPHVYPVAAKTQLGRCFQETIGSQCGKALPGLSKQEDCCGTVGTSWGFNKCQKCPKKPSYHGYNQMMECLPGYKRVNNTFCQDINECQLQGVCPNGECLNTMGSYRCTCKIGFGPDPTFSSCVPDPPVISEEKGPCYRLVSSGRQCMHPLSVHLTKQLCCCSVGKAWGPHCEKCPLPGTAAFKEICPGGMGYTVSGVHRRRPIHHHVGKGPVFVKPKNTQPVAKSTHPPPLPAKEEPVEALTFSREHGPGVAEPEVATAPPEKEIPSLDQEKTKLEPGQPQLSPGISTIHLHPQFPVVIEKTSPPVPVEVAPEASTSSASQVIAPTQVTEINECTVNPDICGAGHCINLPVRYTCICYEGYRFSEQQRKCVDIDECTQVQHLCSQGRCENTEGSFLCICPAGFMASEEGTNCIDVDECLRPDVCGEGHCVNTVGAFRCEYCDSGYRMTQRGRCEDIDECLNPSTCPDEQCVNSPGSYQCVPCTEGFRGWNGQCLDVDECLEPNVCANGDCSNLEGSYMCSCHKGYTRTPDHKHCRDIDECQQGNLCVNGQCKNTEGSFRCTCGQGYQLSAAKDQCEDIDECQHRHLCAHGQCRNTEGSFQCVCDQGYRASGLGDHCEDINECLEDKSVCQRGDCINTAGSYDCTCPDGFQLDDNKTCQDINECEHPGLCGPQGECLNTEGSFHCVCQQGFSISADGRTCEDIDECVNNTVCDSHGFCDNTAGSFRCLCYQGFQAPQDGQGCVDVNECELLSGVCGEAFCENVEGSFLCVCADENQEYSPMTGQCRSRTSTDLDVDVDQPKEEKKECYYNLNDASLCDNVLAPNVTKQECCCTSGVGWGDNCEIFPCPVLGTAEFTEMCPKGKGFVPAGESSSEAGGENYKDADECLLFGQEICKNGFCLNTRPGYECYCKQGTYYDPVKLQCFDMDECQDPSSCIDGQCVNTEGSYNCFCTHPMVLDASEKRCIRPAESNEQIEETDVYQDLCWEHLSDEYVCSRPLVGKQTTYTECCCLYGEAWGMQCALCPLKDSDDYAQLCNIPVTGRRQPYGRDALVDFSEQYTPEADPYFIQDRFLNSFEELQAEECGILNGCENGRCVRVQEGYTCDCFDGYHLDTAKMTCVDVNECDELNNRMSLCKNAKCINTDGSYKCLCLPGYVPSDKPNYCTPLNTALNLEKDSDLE

B1: Ab5 (antibody, V domains shown)
VH: EVQLVESGGGLVQPGGSLRLSCAASGFTFSSFSMDWVRQAPGKGLEWVSYISPDASTIYYADSVKGRFTISRDNAKNSLYLQMNSLRAEDTAVYYCARGVLDYGDMLDPWGQGTLVTVSS
VL: DIQMTQSPSSLSASVGDRVTITCQASQDITNYLNWYQQKPGKAPKLLIYDASNLETGVPSRFSGSGSGTDFTFTISSLQPEDIATYYCQQADNHPPWTFGGGTKVEIK
For the molecule B1, the “IC50, reporter cell assay” value in experiment [1] was determined as 1.29 nM; in experiment [2], 1 nM; in experiment [3] it was 0.14 nM; in experiment [4] it was 0.616 nM.

B2: Ab27 (antibody, V domains shown)
VH: EVQLVESGGGLVQPGGSLRLSCAASGFTFSFYAMNWVRQAPGKGLEWVSYISPDASTIYYADSVKGRFTISRDNAKNSLYLQMNSLRAEDTAVYYCARGVLDYGDMLDPWGQGTLVTVSS
VL: DIQMTQSPSSLSASVGDRVTITCQASQDITNYLNWYQQKPGKAPKLLIYDASNLETGVPSRFSGSGSGTDFTFTISSLQPEDIATYYCQQADNHPPWTFGGGTKVEIK
As to B2, the Kd in experiment [5] was determined as 0.424 nM; in experiment [6] it was 0.299 nM.

B3: Ab28 (antibody, V domains shown)
VH: EVQLVESGGGLVQPGGSLRLSCAASGFTFSSFSMDWVRQAPGKGLEWVSYISPDASTIYYADSVKGRFTISRDNAKNSLYLQMNSLRAEDTAVYYCVRGVLDYGDMLDPWGQGTLVTVSS
VL: DIQMTQSPSSLSASVGDRVTITCQASQDITNYLNWYQQKPGKAPKLLIYDASNLETGVPSRFSGSGSGTDFTFTISSLQPEDIATYYCQQADNHPPWTFGGGTKVEIK
Regarding B3, the dissociation constant Kd in experiment [5] turned out to be 0.797 nM; in experiment [6] it was 0.409 nM.

B4: Ab16 (antibody, V domains shown)
VH: EVQLLESGGGLVQPGGSLRLSCAASGFTFSNYAMSWVRQAPGKGLEWVSAISGSGFTTYYADSVKGRFTISRDNSKNTLYLQMNSLRAEDTAVYYCARVSSGHWDFDYWGQGTLVTVSS
VL: DIQLTQSPSSLSASVGDRVTITCRASQSISSYLNWYQQKPGKAPKLLIYAASNLQSGVPSRFSGSGSGTDFTLTISSLQPEDFATYYCQQTYTVPLTFGGGTKVEIK
As to B4, the Kd in experiment [5] was 4.16 nM; in experiment [6], 0.631 nM.

B5: Ab13 (antibody, V domains shown)
VH: EVQLLESGGGLVQPGGSLRLSCAASGFTFADYAMTWVRQAPGKGLEWVSAISSFASAIYYADSVKGRFTISRDNSKNTLYLQMNSLRAEDTAVYYCARVSSGHWDFDYWGQGTLVTVSS
VL: DIQMTQSPSSLSASVGDRVTITCRASQSISSYLNWYQQKPGKAPKLLIYAASSLQSGVPSRFSGSGSGTDFTLTISSLQPEDFATYYCQQVYDPPLTFGGGTKVEIK
For the molecule B5, the results for the Kd in experiment [5] and in experiment [6] were 10 nM and 1.4 nM, respectively.

B6: Ab8 (antibody, V domains shown)
VH: QVQLVESGGGVVQPGRSLRLSCAASGFTFSDYAMVWVRQAPGKGLEWVSAISGSGFTTYYADSVKGRFTISRDNSKNTLYLQMNSLRAEDTAVYYCARVSSGHWDFDYWGQGTLVTVSS
VL: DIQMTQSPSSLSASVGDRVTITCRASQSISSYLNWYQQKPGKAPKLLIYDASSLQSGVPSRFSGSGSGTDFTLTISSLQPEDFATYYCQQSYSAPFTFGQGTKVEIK
As to B6, the Kd in experiment [5] stood at 15.4 nM; in experiment [6], 10 nM.

B7: Ab9 (antibody, V domains shown)
VH: QVQLVESGGGVVQPGGSLRLSCAASGFTFSSFAMTWVRQAPGKGLEWVSAISGSGAATYFADSVKGRFTISRDNSKNTLYLQMNSLRAEDTAVYYCARVSSGHWDFDYWGQGTLVTVSS
VL: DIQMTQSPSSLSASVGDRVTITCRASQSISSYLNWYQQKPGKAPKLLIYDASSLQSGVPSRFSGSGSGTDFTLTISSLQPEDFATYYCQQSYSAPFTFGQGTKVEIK
For B7, the Kd stood at 15.5 nM in experiment [5] and 1.3 nM in experiment [6].

B8: Ab10 (antibody, V domains shown)
VH: EVQLLESGGGLVQPGGSLRLSCAASGFTFRNYAMSWVRQAPGKGLEWVSSISGSGGATYYADSVKGRFTISRDNSKNTLYLQMNSLRAEDTAVYYCARVSSGHWDFDYWGQGTLVTVSS
VL: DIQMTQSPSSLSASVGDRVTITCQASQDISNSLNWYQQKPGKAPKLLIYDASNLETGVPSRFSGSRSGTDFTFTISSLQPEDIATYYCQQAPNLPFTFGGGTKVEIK
For B8, the Kd in experiment [5] is 10.2 nM; in experiment [6], 1.06 nM.

B9: Ab7 (antibody, V domains shown)
VH: EVQLLESGGGLVQPGGSLRLSCAASGFTFADYAMTWVRQAPGKGLEWVSAISGTGAHTYYADSVKGRFTISRDNSKNTLYLQMNSLRAEDTAVYYCARVSSGHWDFDYWGQGTLVTVSS
VL: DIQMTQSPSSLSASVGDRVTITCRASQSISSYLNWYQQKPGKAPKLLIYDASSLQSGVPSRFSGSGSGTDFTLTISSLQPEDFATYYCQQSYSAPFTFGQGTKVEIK
Consider B9, for which the Kd in experiment [5] stood at 18 nM; in experiment [6], 10.3 nM.

B10: Ab36 (antibody, V domains shown)
VH: EVQLLESGGGLVQPGGSLRLSCAASGFTFRNYAMSWVRQAPGKGLEWVSSISGSGGATYYADSVKGRFTISRDNSKNTLYLQMNSLRAEDTAVYYCARVSSGHWDLDYWGQGTLVTVSS
VL: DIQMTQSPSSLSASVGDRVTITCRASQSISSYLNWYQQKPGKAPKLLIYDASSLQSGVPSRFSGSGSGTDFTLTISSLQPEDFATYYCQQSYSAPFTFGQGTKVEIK
For the molecule B10, the Kd in experiment [5] turned out to be 12.8 nM; in experiment [6], 1.42 nM.

B11: Ab1 (antibody, V domains shown)
VH: EVQLLESGGGLVQPGGSLRLSCAASGFTFRNYAMSWVRQAPGKGLEWVSSISGSGGATYYADSVKGRFTISRDNSKNTLYLQMNSLRAEDTAVYYCARVSSGHWDFDYWGQGTLVTVSS
VL: DIQLTQSPSSLSASVGDRVTITCQASQDISNFLNWYQQKPGKAPKLLIYDASNLETGVPSRFSGSGSGTDFTFTISSLQPEDIATYYCQQVFNPPLTFGGGTKVEIK
As for B11, the “IC50, reporter cell assay” value stood at 14.5 nM in experiment [1], 2.71 nM in experiment [2], 3.71 nM in experiment [3] and 5.37 nM in experiment [4].

B12: Ab15 (antibody, V domains shown)
VH: EVQLVESGGGVVQPGRSLRLSCAASGFTFSDYAMVWVRQAPGKGLEWVSAISGSGFTTYYADSVKGRFTISRDNSKNTLYLQMNSLRAEDTAVYYCARVSSGHWDFDYWGQGTLVTVSS
VL: DIQLTQSPSSLSASVGDRVTITCRASQSISSYLNWYQQKPGKAPKLLIYAASNLQSGVPSRFSGSGSGTDFTLTISSLQPEDFATYYCQQTYTVPLTFGGGTKVEIK
In the case of B12, the Kd in experiment [5] is 7.01 nM; in experiment [6], 0.702 nM.

B13: Ab14 (antibody, V domains shown)
VH: EVQLLESGGGLVQPGGSLRLSCAASGFTFSAYAMTWVRQAPGKGLEWVSAISGTGGSTYYADSVKGRFTISRDNSKNTLYLQMNSLRAEDTAVYYCARVSSGHWDFDYWGQGTLVTVSS
VL: DIQMTQSPSSLSASVGDRVTITCRASQSISSYLNWYQQKPGKAPKLLIYAASSLQSGVPSRFSGSGSGTDFTLTISSLQPEDFATYYCQQVYDPPLTFGGGTKVEIK
On to B13, for which the Kd turned out to be 10.5 nM in experiment [5] and 1.34 nM in experiment [6].

B14: Ab17 (antibody, V domains shown)
VH: EVQLLESGGGVVQPGGSLRLSCAASGFTFSSFAMTWVRQAPGKGLEWVSAISGSGAATYFADSVKGRFTISRDNSKNTLYLQMNSLRAEDTAVYYCARVSSGHWDFDYWGQGTLVTVSS
VL: DIQLTQSPSSLSASVGDRVTITCRASQSISSYLNWYQQKPGKAPKLLIYAASNLQSGVPSRFSGSGSGTDFTLTISSLQPEDFATYYCQQTYTVPLTFGGGTKVEIK
On to B14, for which the results for the Kd in experiment [5] and in experiment [6] were 8.62 nM and 0.658 nM, respectively.

B15: Ab18 (antibody, V domains shown)
VH: QVQLVESGGGVVQPGRSLRLSCAASGFTFSDYAMVWVRQAPGKGLEWVSAISGSGAATYFADSVKGRFTISRDNSKNTLYLQMNSLRAEDTAVYYCATVSSGHWDFDYWGQGTLVTVSS
VL: DIQLTQSPSSLSASVGDRVTITCRASQSISSYLNWYQQKPGKAPKLLIYAASNLQSGVPSRFSGSGSGTDFTLTISSLQPEDFATYYCQQTYTVPLTFGGGTKVEIK
With B15, the Kd came out at 11.5 nM in experiment [5] and 1.02 nM in experiment [6].
